Experimental data published in PMC6224603, “Membrane association and remodeling by intraflagellar transport protein IFT172” (Nature Communications, 2018).

Target: T1, Chlamydomonas IFT172 (intraflagellar transport protein 172), recombinant full-length, C-terminal His-tag (Chlamydomonas reinhardtii, UniProt Q5DM57 1-1755)
T1 construct: Gene synthesised or sub-cloned into MCS2 of the pFL vector; no removal of the His-tag is described; The detergent-free monomer was used in the liposome sedimentation assays; also called IFT172-His tag; IFT172 monomer; source: HighFive insect cells (baculovirus), purified (His60 Ni Resin, SEC on Superose 6; with 0.1% DDM for the monomer, or with HiTrapQ-Sepharose anion exchange for the …)
T1 sequence (Q5DM57 whole entry): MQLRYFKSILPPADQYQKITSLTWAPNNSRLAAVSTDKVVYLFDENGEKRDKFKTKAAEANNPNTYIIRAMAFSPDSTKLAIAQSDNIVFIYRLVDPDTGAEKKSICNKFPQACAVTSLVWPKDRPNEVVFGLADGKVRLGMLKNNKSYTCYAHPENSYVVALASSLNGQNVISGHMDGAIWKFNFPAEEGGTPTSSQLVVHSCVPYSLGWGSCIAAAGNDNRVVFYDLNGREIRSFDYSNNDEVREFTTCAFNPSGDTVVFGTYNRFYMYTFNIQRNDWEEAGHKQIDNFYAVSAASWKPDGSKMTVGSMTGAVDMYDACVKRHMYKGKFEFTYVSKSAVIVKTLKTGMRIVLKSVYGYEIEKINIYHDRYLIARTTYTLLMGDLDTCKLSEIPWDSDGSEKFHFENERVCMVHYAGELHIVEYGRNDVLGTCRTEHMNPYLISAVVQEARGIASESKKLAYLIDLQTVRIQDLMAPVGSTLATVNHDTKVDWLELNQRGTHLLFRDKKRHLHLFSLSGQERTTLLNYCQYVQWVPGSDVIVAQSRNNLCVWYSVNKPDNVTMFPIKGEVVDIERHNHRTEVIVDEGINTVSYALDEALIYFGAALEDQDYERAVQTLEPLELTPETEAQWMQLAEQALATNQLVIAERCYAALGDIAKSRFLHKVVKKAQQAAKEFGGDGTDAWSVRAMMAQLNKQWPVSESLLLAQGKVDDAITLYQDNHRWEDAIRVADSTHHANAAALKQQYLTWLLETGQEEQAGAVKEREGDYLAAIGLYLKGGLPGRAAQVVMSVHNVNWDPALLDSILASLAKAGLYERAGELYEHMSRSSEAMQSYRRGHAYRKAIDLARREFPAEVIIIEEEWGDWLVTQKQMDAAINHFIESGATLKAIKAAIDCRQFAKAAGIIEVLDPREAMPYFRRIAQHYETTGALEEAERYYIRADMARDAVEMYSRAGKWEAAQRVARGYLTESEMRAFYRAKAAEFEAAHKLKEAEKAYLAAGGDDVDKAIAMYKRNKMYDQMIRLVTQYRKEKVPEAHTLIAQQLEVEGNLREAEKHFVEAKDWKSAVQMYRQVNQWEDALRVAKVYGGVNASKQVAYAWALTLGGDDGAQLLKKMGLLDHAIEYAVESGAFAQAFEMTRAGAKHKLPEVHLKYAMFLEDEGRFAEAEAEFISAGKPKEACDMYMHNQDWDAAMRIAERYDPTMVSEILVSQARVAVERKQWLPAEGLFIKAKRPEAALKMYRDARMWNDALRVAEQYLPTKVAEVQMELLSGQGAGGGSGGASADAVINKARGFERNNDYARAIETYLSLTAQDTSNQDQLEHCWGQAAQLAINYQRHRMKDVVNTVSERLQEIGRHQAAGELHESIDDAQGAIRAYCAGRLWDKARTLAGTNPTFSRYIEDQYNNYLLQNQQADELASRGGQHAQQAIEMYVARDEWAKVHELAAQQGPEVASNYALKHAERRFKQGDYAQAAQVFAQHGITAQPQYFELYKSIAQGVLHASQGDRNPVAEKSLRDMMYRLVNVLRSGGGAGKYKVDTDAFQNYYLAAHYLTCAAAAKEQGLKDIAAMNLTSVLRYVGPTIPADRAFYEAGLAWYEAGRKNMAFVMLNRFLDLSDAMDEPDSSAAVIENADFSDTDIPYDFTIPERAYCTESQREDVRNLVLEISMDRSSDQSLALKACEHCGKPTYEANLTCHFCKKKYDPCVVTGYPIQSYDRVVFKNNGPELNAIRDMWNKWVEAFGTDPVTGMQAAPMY
Assay: co-sedimentation; liposome co-sedimentation: IFT172 with Folch fraction I MLV and rising amounts of IFT57; 20 mM Hepes, 150 mM NaCl, pH 7.5, 15 min on ice, 135,000 xg for 20 min, supernatant and pellet by SDS-PAGE; binding of IFT57 to IFT172 is read from the loss of IFT172 from the liposome pellet
Details: both partners purified

- binding result: binds
B1: Chlamydomonas IFT57 (intraflagellar transport protein 57), full-length (natural protein, UniProt Q2XQY7 1-469, looked up)
chain: MSSKRGGRSSLAKAPEEAVNGEAFAPEASPPPPGDDGDAGGEDGGAPAPPPPPATKGGPVAVGRSLEIQTTPDVCMEMLADKLKLLNYEADFCRKKKPYRKPLSRLYFAVPLANSSEQFFYFTSLATWLLGLAGVELPAPKEFDDPNLTCQNILGAVKKLGFAPPSYHPTKLTVGNGKEVVGVLDGLVDFVLERRHHKYSRPAYGNDGQPEEGVQLDDEAEAAAMEGADELAMPAQNQADDDEEEEGVYVDPGRGDAAGPGTGASAAMDAEKAVLVSKVDPTLWKIELERVAPKLRITIAADSKDWRSHLDEAHQHKEVISKAWPDSKTSLERLRADLNGTLEKLQTREKFLNEQFESLMQQYRAARTTFTDVQETYNRKTEAVADRNQEMHRIGETLEEVKAMMDEKGSNIADATPVARIKTAIKQLNKELHDMEVRIGVVSHTLLQLSLRNKRLLQAQAALSDEEED
notes: IFT57 from Chlamydomonas, full length, cloned into the pEC vector; source: E. coli BL21 (DE3), purified (Ni-NTA, TEV cleavage, HiTrapQ-Sepharose, SEC); not shown: His tag, N-terminal, cleaved
